# Experimental data as given in FireProtDB (doi:10.1111/j.1432-1033.1992.tb17411.x).
# B1: Cystatin-B wild type, P04080 (protein)
# chain: MMCGAPSATQPATAETQHIADQVRSQLEEKENKKFPVFKAVSFKSQVVAGTNYFIKVHVGDEDFVHLRVFQSLPHENKPLTLSNYQTNKAKHDELTYF
# B2: Cystatin-A wild type, P01040 (protein)
# chain: MIPGGLSEAKPATPEIQEIVDKVKPQLEEKTNETYGKLEAVQYKTQVVAGTNYYIKVRAGDNKYMHLKVFKSLPGQNEDLVLTGYQVDKNKDDELTGF
# Conditions: Homo sapiens; pH 5; Thermal; DSC; Sodium acetate 0.02 M; NaCl 0.13 M; reversible: yes; whole UniProt chain shown
Protein,Tm [°C],unfolding enthalpy (calorimetric) [kJ/mol],unfolding enthalpy (van 't Hoff) [kJ/mol]
B1,50.2,293,306
B2,90.8,473,540

# Same assay, conditions: Homo sapiens; pH 6.5; Thermal; DSC; Sodium phosphate 0.01 M; NaCl 0.13 M; reversible: no; whole UniProt chain shown
Protein,Tm [°C],unfolding enthalpy (calorimetric) [kJ/mol]
B1,64.9,327

# Same assay, conditions: Homo sapiens; pH 8.1; 10 °C; Thermal; DSC; HEPES 0.01 M; NaCl 0.13 M; reversible: yes; whole UniProt chain shown
row,Protein,unfolding free energy [kJ/mol]
1,B1,25.1

# Same assay, conditions: Homo sapiens; pH 8.1; 25 °C; Thermal; DSC; HEPES 0.01 M; NaCl 0.13 M; reversible: yes; whole UniProt chain shown
row,Protein,unfolding free energy [kJ/mol]
1,B1,24.7

# Same assay, conditions: Homo sapiens; pH 8.1; 45 °C; Thermal; DSC; HEPES 0.01 M; NaCl 0.13 M; reversible: yes; whole UniProt chain shown
row,Protein,unfolding free energy [kJ/mol]
1,B1,16.7

# Same assay, conditions: Homo sapiens; pH 8.1; 50 °C; Thermal; DSC; HEPES 0.01 M; NaCl 0.13 M; reversible: yes; whole UniProt chain shown
row,Protein,unfolding free energy [kJ/mol]
1,B1,13.4

# Same assay, conditions: Homo sapiens; pH 8.1; Thermal; DSC; HEPES 0.01 M; NaCl 0.13 M; reversible: no; whole UniProt chain shown
Protein,Tm [°C],unfolding enthalpy (calorimetric) [kJ/mol]
B1,65.9,339

# Same assay, conditions: Homo sapiens; pH 6.5; Thermal; DSC; Sodium phosphate 0.01 M; NaCl 0.13 M; reversible: yes; whole UniProt chain shown
Protein,Tm [°C],unfolding enthalpy (calorimetric) [kJ/mol],unfolding enthalpy (van 't Hoff) [kJ/mol]
B2,94.5,486,619
